B1: 83 (protein, listed as Mycobacterium rhodesiae)
chain: MALIALEEHYAWSPVSAGNVVGSWLETHNVTAYQRLYDRGPLRLEQMDAAGIDFQILSLFDPGVQDDDDTARAVENARRANDDLAETVRAAPDRFGGFATLAPQDPDAAAAELERAVGELGLVGGLINGHTHGRYLDDPAYLGLFECAQRLGVPIYLHPTTPHPAVMDAWFAPYVKDGLHLASWGFAAETGTHALRLIYSGLFDTFPRLQMILGHLGEMLPYAAYRIDRYYGLGGGDDGGRLARLPSEYLRDNFHVTTSGNFNPVAFACALDVMGPDRLMFSVDYPMDDNVTGAEFLRNLEVDDDVRRKVAGENALQLFGDKIPRR
B2: 3 (protein, listed as Lactobacillus plantarum)
chain: MAKLITVEEHFESAAVTAAMRQAVGNAVLPAVSPALRQYMRDNLPSPAIMQDTQHERLAFMAQYGIDMQVLSYGNSSPQNLSPEQAVPLSQLANDELAKAVVAHPDRYAGLAVLPVGDPQAAVAELNRAVTTLGLRGVLLKGNYQNKFFDEPFFLPIFEAAAALDVPVYFHPSFIPQAVTSHYFESNQWSDVVTGILSSAGYGWHMDVGIQVIRMIASGIFDKLPGLKLISGHWGELVPLFLERLDDELTTYTDLQYPFSTYYRHNVYVTPSGILSAPQLQFMLAEMGADHLMYSIDYPYKQPETSGSFLDIADLTDEQRAQIAFGTATTLFKL
B3: 78 (protein, listed as Marinobacter adhaerens)
chain: MALIDLHAHAPHPDYYDQHPHWGPAFELQSDGDIKLRVGHWVLSLGAPERKQALREAHARGETLDVQEYMAKWRDPEHRLASMDAAGQNAQVLSVPSHCYMYWAEPEFGVPFAKKVNDSLAEYCSAAPDRLMFWAHAPLNVPKEAAKEIRRACTELGAKGLVAGGSNFGGLEFDSPEMDPVWEALCDLDLPMFVHGYNQSVTWGEEANTDRYETTAIVGMNYDESKCFWYMINGGVFDRFPNLKVYITHGGGFVPYQLGRMAQTNPNLDTYHNKKPFLEYLKNFYFDVELHEVPMRQAMVEVIGADRVLYGSNFGGSDAVRHDLTDDLKLSQEDLDKIRWKNACDLLHLDPNKLGKVRG
B4: 75 (protein, listed as Ectocarpus siliculosus)
chain: MAKIDSYTHFACPAFMDHLEAESGHPMVFRGLFSSIPELSDIDLRIRYMDEHGIDVHCLVPLPWLECEPGLHADEGKALEACRIANDEMARVVARFPDRLIGVALIPTTTEQAMIQETTRAVKELGMAGVALFVGPTAKPPDMACFEGLYRTCEELGAVVWMHPCRPQSYADYDSYKGEGSKHQIWNTFGWIYDTSVAMVHIALAGVFRRYPGLKVVTHHHGAMVPFFTARFDTQRRNFQEVEGDDLLEDLRLFYCDTATFGESAANIQQAIDFFGKSQVLFGTDTPMDMGTRGMFTRTTIASVEALGAAPEDKESFYAGNVLDMLGERFAGISGARGAVAARPKGDSTRIAASL
B5: 73 (protein, listed as Sphaerobacter thermophilus)
chain: MARIDAHAHAQPPEYLDALLASGRYESVRDAEGRIVVRERGSRFLTITPQMHHPEQRVAEMDEAGIDMQILSVTTPQVYFLQGQAAVDLARRCNDYLADIVRSYPTRFRALASVPLTADPDAAVREFVRCLDDLGMVGAIIGSNIDGRPIDDPAFDAFYAEADRRATTLFIHPMVPAGIEVMNPYALAPLVGFMFDTTLAVSRLIFSGFFERYPRVKVLVGHLGAAVPYLAGRLDIGWRSYSDCQGIPHPPTEYIRRLYLDTVSFHAPALRCALETVGPDRIVFGSDYPHVIGDVGGAIASIQQALPATTHDGVLGHTAAELFGVSA
B6: 80 (protein, listed as Cordyceps militaris)
chain: MAAASTPVVVDIHTHMYPPSYIAMLEKRQTIPLVRTFPQADEPRLILLSSELAALDAALADPAAKLPGRPLSTHFASLAQKMHFMDTNGIRVSVISLANPWFDFLAPDEAPGIADAVNAEFSDMCAQHVGRLFFFAALPLSAPVDAVKASIERVKNLKYCRGIILGTSGLGKGLDDPHLLPVFEAVADAKLLVFLHPHYGLPNEVYGPRSEEYGHVLPLALGFPMETTIAVARMYMAGVFDHVRNLQMLLAHSGGTLPFLAGRIESCIVHDGHLVKTGKVPKDRRTIWTVLKEQIYLDAVIYSEVGLQAAIASSGADRLMFGTDHPFFPPIEEDVQGPWDSSRLNAQAVIKAVGEGSSDAAAVMGLNAVRVLSLKAE
B7: 81 (protein, listed as Verticillium dahliae)
chain: MAASTKPKVVDIHTHMYPPSYIDILTSRTAIPVVRTFPQAADPRLILLDAEQQALDAALQDPTAKPPGRPLTSHYASLDQKIHFMDTHSIDISVVSLANPWLDFIEPKEAAATARSVNDEFEAMCASQPGRLFFFAALPLTAPLPALLEAVRHVAELEHCRGVILGTSGLGSGLDDPELVPVLEAVAAAALTVFLHPHYGLPNDVWGPRASAEYGHVLPLALGFPMETTIAVARMYLAGVFDRVPALRMLLAHSGGTLPFLAGRIESCILHDGQLVAEGKVGAARRTIWDVLREQVYLDAVIYSEIGLKAAIAASGGADRLMFGTDHPFFPPLGTDEQAKKESRINAGGSRPMITGNAMINGHGGLCNHITQSDYQDVVL
B8: 71 (protein, listed as Burkholderia dolosa)
chain: MARAGHRAARTRQSRPGDRTMTCSCCMSAGRRRVLGAFAALAGAPKGPRAASAAQPAAASKPTRGDATARNRHSRALLPGKASASWSATKASGSGGAFAWDDTTFTFRTPAGGLGPLPMKFIDVDARLRDMDASGVDVQALSLSVPMAYWGDRPFNAKLARAWNTAASRVHVRAPDRFVVLATLPMLDATDAIDELERASELPGVRGVYMGTNIDNRDLDDPRFAPVFARIEQLGLPVFLHPQQTVGGARLGDFYLSNLLGNPFDTAIAASHLILGGVLDRHPALHFTLPHAGGALPILVGRLDAGWTVRAETRRLAHQPSGYLRRFSYDTVSHSGPVLNFLIENVGIDRLVLGSDYCFDMGYEQPVRFLDRLDLTPDERAMVIGGNAGRLLRI
B9: 72 (protein)
chain: MADCPCCVSPKRRRLLGSVSAIAAGMMAGLPALAAQPSTAAAGTGKPLSIDIHAHYYSESFLGLLGGEGKQFGGHFFRNDDSFTFQTPAGGLGPLPMKFIDVEQRVRDMDNSGVDVQAISLSVPMVYWADRTLNAKLARAWNTAASDVHRKHPTRFVVLATLPMLNANDAIDELEFAAGLPGVRGIYMGTNINNRDLDDPLFSPIFKRIEQLNLPIFLHPQQTVGGARLADFYLSNLLGNPFDTAIAASHLILGGVLDKYPALHFSLPHAGGALPILVGRIDAGWSMRSETKRVAQKPSSYLRRFSYDTISHSGPTLDFLIRNIGADRLVLGSDYCFDMGYEQPVRFLDRLALPDDQKRMVVGGNAARLLNL
modifications: Cupriavidus necator
B10: 76 (protein, listed as Polymorphum gilvum)
chain: MAKKIDIFNHIWPEPFFKALIAHIGEMTDITMRSGAVPMMTNLDRRFEVMDMFGPDYMQVLSLASPPLEKLADPAKALELSRIGSDSLAELCQRYPERFPAFIGTAPLSNPAAVVGECRRAIEDLGAAGMQIFTNVAGKPLDLAEFEPFFEYMASAGKPVWLHPARGEAFADYQTEKRSEYEIWWTFGWPYETSAAMARLVFSRMFDKYPGLKVITHHAGGMVPFFEGRVGPGWDQMGARTTDRDLAAVRKALKRPHLDYFKEFYADTASFGSRKAIEHAIEFFGEDRVLFASDAPFDPEGGPMYIRETMRCIDSLDLTDAQRRKIYHGNATALLGLSL
B11: 74 (protein, listed as Ramlibacter tataouinensis)
chain: MATVIDVHTHMFTTKWLELLKKEGGQYNIQTRPDGQQEIFRGNTPVVIPQKGHFDWKLRIQHMDQAGIDVSVVSLTCPNVYWGGEDVSVRAAREANDNVAQAQTAYPDRIRWFASLPWEYMATVIDVHTHMFTTKWLELLKKEGGQYNIQTRPDGQQEIFRGNTPVVIPQKGHFDWKLRIQHMDQAGIDVSVVSLTCPNVYWGGEDVSVRAAREANDNVAQAQTAYPDRIRWFASLPWEYPQRAVEELERSCAQGAAGVMVLANVAGRSLTDPLFAPVWAEIDRRALPVLVHPTDPPGVDLMDMTKFDLSWSVGFMFDTTLAITRMIFEGFFDRYPNLRIIASHGGGTLPYLVGRFEKGDEVELASRRQMKRKPTDYLRHIHYDCITYNLGALQYLISVVGAGQVMFGTDWPHWVHDTRGAFANTAQLPQEQTRAVRGANAQRLFKL
B12: 79 (protein)
chain: MATTTTPSTLIATLESHLTPTLAFTSPTTSPTQPALHLIPPTTLTKLRNLGPGRVKDMHMLGHSRQIISHIPVAAPPQICSRFNDAIHAATMTNTAKFSVLAVLPTDGMEAAKELARCVSKYRFVGGVIGLNRGLRINGEGWEELWGLAERLRIPIMFREMWPLAFEIVDYQHHLPYSALGPILTQLHTSHTSSPLPLVRLYLSSVFDHYPSLRLVLAHPGSLPSLVPRIESLINSIPATDKPKRSFLDVWQHNIYLTTADAQDMSSLRALLEQIPVDRVLYASNYPFEERGNELMNELRESEFLTNIEWERVAWVNAETLFNLKEAGTKEARQLTTIPSSRS
modifications: Pyrenophora teres
B13: 70 (protein, listed as Alicyclobacillus acidocaldarius)
chain: MAIEPNRAADVHTHFLPTEVLEFLKREPRIQVDLERRAPDKEPFLTVEGRWSFELKRMFVDFEAFASAYRQAGIGLALVSPLPQLFVYHLPAEMGAQVAEVYNDALRDVLAPHRERFRPLATLPLADPTAAARELERRMDEGFVGAIVGPGVGEALIGDEAFWPLWEVADARRAVLFLHPLLHADPRAARLMLPNLVGVPWETTLAAAHLVLSGLLDRYPGARVLLAHGGGFLPYQIGRIEQGYDVWPQVRGRLQDRPTAYLRRMFYDNVLWSDAALRCLIDVVGADRVLAGSDFPFDLSAWPPRPGADVSVLAGGSGREGRLS
B14: 82 (protein, listed as Rhodopseudomonas palustris)
chain: MAQNETPVIAIEEHYWDPEMVARFPAGENASPFSTLLTELGDVRLRAMDEAGIDVQVLSHGAPAAQKLPPDVAPELTRRVNDRLAEACARFPNRFAAFAALPTPAPEAAARELERCVRDLGFKGAMIHGLTNGLFIDDKRFWPIFEVAEKLDVPIYLHPSVPHADVTRYYYDDYAREFPTVIRPAWGFTVETATQAIRLILSRALESYPRLQIILGHLGETLPFLLWRINQALARPGQTPLDFRKQFCDHFHVTTSGFFSTPALICTMLELGIDRIMFAVDYPYVVNRDGTDWVQQLQISPDDKRKLVGGNARRLLKL
B15: 77 (protein)
chain: MALIDLHAHAPHPGYYNQHPHWGPFFERHEDGDVKLRVGDWILTLGSPERKALVRAGKGPTVEEYQARWADPKVRLAGMDAAGQNAQVVSVPSHCYMYWAEKEFSVPFATKVNDTFAEYCSAAPDRLMFWAHAALNAPEQAALELRRACTELGAKGLVAGGANFGGLEFDSPELDPVWKVLCDLDLPMFIHGYNQSVTWGKKANDDRYETTAIVGMQYDETRCFWNLVCGGVLDRFPGLKVYITHGGGYVPYQLGRLAQCNGNLDVAHNKKPVLEYLKNNFYFDVELHEVPMRQALIDIIGADRVLYGSNFGGSDAVRHDLTEGLRLSDDDLQKIRWKNACKLLHLDPAKIGEPAKKQAVSA
modifications: Burkholderia xenovorans

Test: Saturation mutagenesis of SEQ ID NO:109: dicamba decarboxylation activity of point mutants (CO2 released), fold of backbone (Tables 7, 8, Megatable 1)
Conditions: decarboxylation activity (CO2 released) of point mutant vs unmutated backbone protein; backbone SEQ ID NO: 109

Molecule	Fold Activity
B1	1.9 fold
B2	0.9 fold
B3	1.1 fold
B4	1.7 fold
B5	1.2 fold
B6	0.8 fold
B7	1.2 fold
B8	1.5 fold
B9	1.2 fold
B10	1.1 fold
B11	1.4 fold
B12	0.9 fold
B13	1.7 fold
B14	0.9 fold
B15	1.3 fold

Reference: patent US20160040149A1, “Compositions Having Dicamba Decarboxylase Activity and Methods of Use” (priority 2013, published 2016)
